In publication PMC5862942, “JMJD5 is a human arginyl C-3 hydroxylase” (Nature Communications, 2018):
Where no end group is shown, it is not given here.

Biological target: N-terminally truncated JMJD5 (Jumonji-C domain-containing protein 5), wild type (human, UniProt Q8N371 183-416)
Assay: cell-based or functional assay

N-terminally truncated JMJD5 (Jumonji-C domain-containing protein 5), wild type, sequence (Q8N371 other isoform, or with tags, fused parts or gaps): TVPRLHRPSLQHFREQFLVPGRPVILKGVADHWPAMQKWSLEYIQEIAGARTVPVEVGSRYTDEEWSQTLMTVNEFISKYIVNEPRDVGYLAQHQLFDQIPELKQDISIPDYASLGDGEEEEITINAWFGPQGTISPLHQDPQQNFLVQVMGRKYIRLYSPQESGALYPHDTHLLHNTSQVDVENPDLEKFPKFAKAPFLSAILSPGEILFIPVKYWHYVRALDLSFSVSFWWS

apparent Km of the RPS6 129-144 peptide in JMJD5-catalysed Arg137 hydroxylation (MALDI-MS-based assay, 37 °C): 60.4 µM
Binder: VPRRLGPKRASRIRKL-NH2 [40S ribosomal protein S6 (RPS6) peptide, residues 129-144]
